These results are taken from patent publication US20050124539A1 (Takeda / Millennium, published 2005).

The labels stand for the following.
T1: Human GPR7 (human, UniProt P48145 1-328)
T1 sequence: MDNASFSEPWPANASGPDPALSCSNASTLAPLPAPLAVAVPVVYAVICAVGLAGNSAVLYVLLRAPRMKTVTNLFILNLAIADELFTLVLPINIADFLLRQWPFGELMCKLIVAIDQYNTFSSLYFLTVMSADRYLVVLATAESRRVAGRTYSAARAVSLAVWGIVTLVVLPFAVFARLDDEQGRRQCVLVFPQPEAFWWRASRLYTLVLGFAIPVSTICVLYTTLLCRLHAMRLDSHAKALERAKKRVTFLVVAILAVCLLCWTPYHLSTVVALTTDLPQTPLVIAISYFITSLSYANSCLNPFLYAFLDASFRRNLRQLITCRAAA

T2: TGR26, rat-derived G protein-coupled receptor protein (rat, UniProt Q56UD9 1-329)
T2 construct: Expressed in CHO dhfr- cells from pAK-rGPR7; also called rat TGR26; TGR26 receptor
T2 sequence: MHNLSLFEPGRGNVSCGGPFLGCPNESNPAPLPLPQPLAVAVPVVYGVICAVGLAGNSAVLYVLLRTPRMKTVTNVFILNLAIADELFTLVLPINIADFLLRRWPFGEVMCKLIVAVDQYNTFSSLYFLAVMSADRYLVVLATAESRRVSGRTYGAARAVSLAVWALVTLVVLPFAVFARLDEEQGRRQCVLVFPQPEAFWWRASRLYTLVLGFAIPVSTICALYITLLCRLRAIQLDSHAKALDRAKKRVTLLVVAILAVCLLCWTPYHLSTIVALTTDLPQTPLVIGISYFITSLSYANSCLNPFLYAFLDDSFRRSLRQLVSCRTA

B1: Human GPR8 ligand (4-23) (peptide)
peptide: HVASPRYHTVGRAAGLLMGL
notes: also called hGPR8L(4-23)
B2: [D-Trp^1]-Human GPR8 ligand (1-23) (peptide)
peptide: XYKHVASPRYHTVGRAAGLLMGL
modifications: D-Trp at position 1
notes: also called [D-Trp^1]-hGPR8L(1-23)
B3: Human GPR8 ligand (1-18) (peptide)
peptide: WYKHVASPRYHTVGRAAG
notes: also called hGPR8L(1-18)
B4: [N^α-Acetyl-Trp^1]-Human GPR8 ligand (1-23) (peptide)
peptide: XYKHVASPRYHTVGRAAGLLMGL
modifications: N-alpha-acetyl on Trp 1
notes: also called Ac-hGPR8L(1-23)
B5: Human GPR8 ligand (9-23) (peptide)
peptide: RYHTVGRAAGLLMGL
notes: also called hGPR8L(9-23)
B6: [N-Acetyl-Tyr^2]-Human GPR8 ligand (2-23) (peptide)
peptide: Ac-YKHVASPRYHTVGRAAGLLMGL
notes: also called Ac-hGPR8L(2-23)
B7: [N-3-Indolepropanoyl-Tyr^2]-human GPR8 ligand (2-23) (peptide)
peptide: {Propanoyl(3-indol-3-yl)}-YKHVASPRYHTVGRAAGLLMGL
notes: also called IndPr-hGPR8L(2-23)
B8: [^125I-Tyr^2]-hGPR8L(1-23) (peptide)
peptide: WY(125I)KHVASPRYHTVGRAAGLLMGL

No end group written: not given here. *: point of attachment. Propanoyl(3-indol-3-yl) = O=C(CCc1c[nH]c2ccccc12)*; 125I = [125I]* Bounds are passed on as bounds.

For one assay, the target named is T3, Human GPR8 receptor protein (human, UniProt P48146 1-333). Kind of assay: cell-based or functional assay.
T3 sequence (P48146 whole entry): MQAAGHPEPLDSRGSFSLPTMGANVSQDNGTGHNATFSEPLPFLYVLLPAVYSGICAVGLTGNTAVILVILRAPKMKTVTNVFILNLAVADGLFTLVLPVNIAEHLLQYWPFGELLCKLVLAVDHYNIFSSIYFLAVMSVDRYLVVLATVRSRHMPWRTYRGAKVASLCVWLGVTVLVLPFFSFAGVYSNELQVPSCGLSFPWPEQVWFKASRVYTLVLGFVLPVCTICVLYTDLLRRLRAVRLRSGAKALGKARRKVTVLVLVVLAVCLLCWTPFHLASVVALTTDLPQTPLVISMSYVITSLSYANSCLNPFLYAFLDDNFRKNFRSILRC
As to B1, the “Promoting activity to GTPγS binding (EC50 nM)” value (shortened to “Promoting activity”) came out at 6700 nM.

For the molecule B2, the “Promoting activity” value is 7.1 nM.

As to B3, the “Promoting activity” value was more than 10000 nM.

Take B4: the “Promoting activity” value is 14 nM.

In the case of B5, the “Promoting activity” value worked out at 4200 nM.

For the molecule B6, the “Promoting activity” value came to 7200 nM.

On to B7, for which the “Promoting activity” value is 5 nM.

The target of the next assay is T1, Human GPR7. As to the kind of experiment: cell-based or functional assay.
Regarding B1, the “Promoting activity” value was more than 10000 nM.

With B2, the “Promoting activity” value was 2.3 nM.

On to B3, for which the “Promoting activity” value came to 6200 nM.

On to B4, for which the “Promoting activity” value was determined as 1.5 nM.

In the case of B5, the “Promoting activity” value is more than 10000 nM.

B6: the “Promoting activity” value was 7000 nM.

On to B7, for which the “Promoting activity” value was determined as 0.85 nM.

For a further assay, the target named is T3, Human GPR8 receptor protein. As to the kind of experiment: radioligand filter binding, membrane fraction of Human GPR8 expressing CHO cells. The method, then:
Using [¹²⁵I]-labeled hGPR8L(1-23) prepared as described in Reference Example 42 and a cell membrane fraction prepared from Human GPR8 expressing cells by the similar manner as described in Reference Example 6, a receptor binding assay was carried out as follows.
Cell membrane fraction prepared from Human GPR8 expressing cells was diluted to various concentration with assay buffer (25 mM Tris-HCl, 5 mM EDTA, 0.05% CHAPS (3-[(3-Cholamidopropyl) Dimethyl-Ammonio]-1-Propanesulfonate), 0.1% BSA, 0.25 mM PMSF, 1 μg/ml Pepstatin, 20 μg/ml Leupeptin, pH7.4), and 200 μl each of the diluent was dispensed into polypropilene test tube (Falcon 2053). In order to determine an amount of maximum binding (TB), […] of DMSO and 2 μl of 7 nM [¹²⁵I-Tyr²]-hGPR8L(1-23) or [¹²⁵I-Tyr¹⁰]-hGPR8L(1-23) were added to the membrane fraction solution. Further, in order to determine a non-specific binding (NSB), 2 μt of 100 μM hGPR8L(1-23)/DMSO solution and 2 μl of 7 nM [¹²⁵I]-Tyr²]-hGPR8L(1-23) or [¹²⁵I-Tyr¹⁰]-hGPR8L(1-23) were added to the membrane fraction solution. […] After filtration, a radioactivity remaining on the filter was counted using γ-counter, and an amount of specific binding (SB) was estimated by subtracting an amount of non-specific binding from an amount of maximum binding. […]
Consider B8, for which the binding result is on record as “binds”.

The next assay has the same target. Kind of assay: competition with [125I-Tyr10]-hGPR8L(1-23), membrane fraction of GPR8 expressing CHO cells. The method, then:
Cell membrane fraction prepared from Human GPR8 expressing cells was diluted to various concentration with assay buffer (25 mM Tris-HCl, 5 mM EDTA, 0.05% CHAPS (3-[(3-Cholamidopropyl) Dimethyl-Ammonio]-1-Propanesulfonate), 0.1% BSA, 0.25 mM PMSF, 1 μg/ml Pepstatin, 20 μg/ml Leupeptin, pH7.4), and 200 μl each of the diluent was dispensed into polypropilene test tube (Falcon 2053). In order to determine an amount of maximum binding (TB), […] of DMSO and 2 μl of 7 nM [¹²⁵I-Tyr²]-hGPR8L(1-23) or [¹²⁵I-Tyr¹⁰]-hGPR8L(1-23) were added to the membrane fraction solution. Further, in order to determine a non-specific binding (NSB), 2 μt of 100 μM hGPR8L(1-23)/DMSO solution and 2 μl of 7 nM [¹²⁵I]-Tyr²]-hGPR8L(1-23) or [¹²⁵I-Tyr¹⁰]-hGPR8L(1-23) were added to the membrane fraction solution. The reaction was done at 25° C. for 60 minutes, and the reaction mixture was filtered by suction filtration using Whatman glassfilter (GF-F) treated with polyethyleneimine. After filtration, a radioactivity remaining on the filter was counted using γ-counter, and an amount of specific binding (SB) was estimated by subtracting an amount of non-specific binding from an amount of maximum binding. Since the specific binding in the case where [¹²⁵I-Tyr¹⁰]-hGPR8L(1-23) was used, was twice as much as that in the case where [¹²⁵1-Tyr²]-hGPR8L(1-23) was used, in practice, [¹²⁵I-Tyr¹⁰]-hGPR8L(1-23) was used in the assay. When the concentration of membrane fraction was changed, a specific binding of [¹²⁵I-Tyr¹⁰]-hGPR8L(1-23) was perceived depending on the concentration of membrane fraction.
A receptor binding activity of human- and porcine-homologue derivatives of GPR8 ligand peptide, wherein the synthesis method has been described in the specification, was measured using a membrane fraction of GPR8 expressing CHO cells and [¹²⁵-Tyr¹⁰]-hGPR8L(1-23) by the method described in Reference Example 43.
As to B1, the IC50 (usually the concentration that gives 50% inhibition) amounted to 1400 nM.

As to B2, the IC50 is 0.82 nM.

The molecule B3 displayed an IC50 of 2700 nM. This IC50 is about 3300-fold higher than that of the molecule before.

Regarding B4, the IC50 was 2.4 nM.

As for B5, the IC50 came to 1300 nM.

B6: the IC50 worked out at 420 nM.

B7: the IC50 was found to be 0.28 nM.

A further assay deals with T1, Human GPR7. Kind of assay: competition with [125I-Tyr10]-hGPR8L(1-23), membrane fraction of GPR7 expressing CHO cells.
On to B1, for which the IC50 was 1200 nM.

The molecule B2 had an IC50 of 0.63 nM.

B3 returned an IC50 of 2400 nM.

In turn, B4 registered an IC50 of 0.077 nM. Against the preceding molecule, the IC50 is about 31000-fold lower.

On to B5, for which the IC50 worked out at 2200 nM.

B6: the IC50 was 570 nM.

B7 gave an IC50 of 0.044 nM.

The next assay has as its target T2, TGR26, rat-derived G protein-coupled …. Kind of assay: competition with [125I-Tyr10]-hGPR8L(1-23), membrane fraction of TGR26 expressing CHO cells. How it is done: Cell membrane fraction prepared from TGR26 expressing cells was diluted to various concentration with assay buffer (25 mM Tris-HCl, 5 mM EDTA, 0.05% CHAPS (3-[(3-Cholamidopropyl) Dimethyl-Ammonio]-1-Propanesulfonate), 0.1% BSA, 0.5 mM PMSF, 1 μg/ml Pepstatin, 20 μg/ml Leupeptin, 4 μg/ml E-64, pH7.4), and 200 μl each of the diluent was dispensed into polypropilene test tube (Falcon 2053). In order to determine an amount of maximum binding, 2 μl of DMSO and 2 μl of 7 nM [¹²⁵-Tyr¹⁰]-hGPR8L(1-23) were added to the membrane fraction solution. Further, in order to determine a non-specific binding, 2 μl of 100 μM hGPR8L(1-23)/DMSO solution and 2 μl of 7 nM [¹²⁵I]-Tyr¹⁰]-hGPR8L(1-23) were added to the membrane fraction solution. The reaction was done at 25° C. for 75 minutes, and the reaction mixture was filtered by suction filtration using Whatman glassfilter (GF-F) treated with polyethyleneimine. In addition, the filter was washed twice with 1.5 ml of washing buffer (25 mM Tris-HCl, 5 mM EDTA, 0.05% CHAPS, 0.1% BSA, pH7.4). After filtration, a radioactivity remaining on the filter was counted using γ-counter, and an amount of specific binding was estimated by subtracting an amount of non-specific binding from an amount of maximum binding.
A receptor binding activity of human- and porcine-homologue derivatives of GPR8 ligand peptide obtained in the reference examples was measured using a membrane fraction of TGR26 expressing CHO cells and [¹²⁵I-Tyr¹⁰]-hGPR8L(1-23) by the method described in Reference Example 73.
B1 yielded an IC50 of 2000 nM.

Turning to B2, the IC50 turned out to be 1.3 nM.

B3 displayed an IC50 of 760 nM.

With B4, the IC50 came out at 0.27 nM.

Turning to B5, the IC50 was determined as 2500 nM.

On to B6, for which the IC50 was 570 nM.

For the molecule B7, the IC50 turned out to be 0.12 nM. This IC50 lies about 4800-fold lower than the previous one.
